Reference: patent publication US20120277143A1
Positions count from the first letter of the chain named.

B1: 7H3 (designed binder, part only; not given: N-cap, C-cap, His tag, part only)
chain, part: TDMYGSTPLHLAARHGHLEIVEVLLKYGADVNAFDFIGDTPLHLAAYRGHLEIVEVLLKYGVDVNADDHYGDTPLHLAASMGHLEIVEVLLKNGADVNA
B2: 5D2 (designed binder, part only; not given: N-cap, C-cap, His tag, part only)
chain, part: B1 chain, part with T1K, M3L, Y4F, Y27N, F34E
B3: 5D3 (designed binder, part only; not given: N-cap, C-cap, His tag, part only)
chain, part: B1 chain, part with T1W, M3S, H15E, F34K, F36M

Target: cyno IL13 (cynomolgus monkey) (UniProt Q0PW92)
Experiment: cell-based or functional assay

Chain of cyno IL13 (cynomolgus monkey) (Q0PW92 entry or part of it): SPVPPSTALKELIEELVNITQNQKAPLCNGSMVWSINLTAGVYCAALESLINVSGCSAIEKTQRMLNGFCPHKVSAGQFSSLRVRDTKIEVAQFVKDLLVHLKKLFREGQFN

Cyno IL13 STAT6 IC50 [nM]	Binder
0.388	B1
0.224	B2
3.02	B3

Target: human IL13 (human) (UniProt P35225)
Experiment: cell-based or functional assay

Chain of human IL13 (human) (P35225 other isoform, or with tags, fused parts or gaps limits assumed): as the sequence (Q0PW92 entry or part of it) above, with S1G, K10R, V42M, N67S, R83H, V100L, Q110R counted along it

STAT6 Phospho IC50 [nM]	TARC expression IC50 [nM]	Binder
0.0253	0.0696	B1
0.0203	0.0714	B2
0.0169	0.0883	B3

Target: human IL13 R130Q (human) (UniProt P35225)
Experiment: Luminex competition, 80 pM biotin-IL13 R130Q binding to IL13Ra2-Fc beads

Chain of human IL13 R130Q (human) (P35225 35-146 limits assumed, stated change not applied): as the sequence (Q0PW92 entry or part of it) above, with S1G, K10R, V42M, N67S, R83H, V100L counted along it

IC50 [nM]	Binder
0.0669	B1
0.0322	B2
0.0375	B3

Target: human IL13 (human) (UniProt P35225)
Experiment: SPR BIAcore, biotin-IL13 on SA chip, global fit

Kd [nM]	koff [s⁻¹]	kon [M⁻¹ s⁻¹]	Binder
0.131	0.00056	4.26e+06	B1
0.145	0.000218	1.51e+06	B2
0.164	0.000144	877000	B3
